# Reference: publication PMC5817723, “^99mTc-HYNIC-(tricine/EDDA)-FROP peptide for MCF-7 breast tumor targeting and imaging” (Journal of Biomedical Science, 2018)
# Entries after “also recorded” stand apart in the source; their conditions may differ. Read-outs that look alike come from different tables or passages of the source. Residues, ends and D or L forms follow the SMILES beside them. *: point of attachment. HYNIC = NNc1ccc(C(=O)*)cn1
# Assays:
# [1] = Stability in human plasma serum, RP-HPLC; assay type: in vitro ADME; conditions: 37 °C, triplicate
# Procedure: Reversed phase-HPLC was performed on a Knauer HPLC systems (Knauer HPLC, Berlin, Germany) using a Lablogic radioactivity gamma detector with a Eurospher 100–5 C-18, 4.6 × 250 mm (Knauer, Berlin, Germany) column with a pre-column. (Knauer HPLC, Berlin, Germany) HPLC was run using a gradient of 0.1% TFA in H2O (solvent A) and 0.1% TFA in CH3CN (solvent B) at a flow rate of 1 mL/min. A gradient with solvents A and B was run as follows: 0 min, 10% B; 0–10 min, 10–30% B; 10–20 min, 30–80% B; and 20–25 min, 80–100% B, for a total time of 30 min.
# (§1) The stability of ^99mTc-HYNIC-FROP in normal saline was evaluated using ITLC at various times (2, 4, 6 and 24 h) at room temperature. For serum stability, ^99mTc-HYNIC-FROP (30 μL) was incubated with freshly human plasma serum (90 μL) in triplicate at 37 °C. At 1 h of incubation, the plasma proteins were precipitated with a mixture of acetonitrile/ethanol (1:1 v/v) and centrifugation. The supernatant layer was filtered through a 0.22 μm filter and then the fraction was analyzed by RP-HPLC. Partition coefficient of ^99mTc-HYNIC-FROP was determined via method that previously was described.
# [2] = Partition coefficient between n-octanol and PBS; assay type: physicochemical; conditions: distribution between n-octanol and PBS; method of ref 22; mean ± SD; read-out: Log p (partition coefficient)
# Procedure: as §1
# [3] = tested on: MCF-7 cells; experiment: Internalization study in MCF-7 cells; assay type: cell-based, human; conditions: MCF-7, 40 nM, acid wash urea buffer pH 2.5
# Procedure: For internalization experiment, MCF-7 cells (1 × 10^6 cells) were seeded on the single plates and incubated with ^99mTc-HYNIC-FROP (40 nM) at 4 °C. After 1 h incubation, medium was removed and cells were washed with ice-cold serum free medium. Then 1 mL complete medium was added to each dish and cells were further incubated for 0.5, 1, 2, 6 and 24 h at 37 °C. After incubation, medium was removed from cellular plate and then was washed once with cold serum free medium. Then supernatant was collected, and for removing radioactivity bound to the surface of the cells, the acid wash with urea buffer (pH 2.5) was used. The internalized radiolabeled peptide was recovered by solubilizing the cells with 1 M NaOH at 37 °C for 5 min, and the surface-bound (acid-wash) and internalized (acid-resistant) radioactivity were measured with the gamma counter.
# [4] = Biodistribution in MCF-7 tumor-bearing nude mice; assay type: in vivo; conditions: female, C57 nu/nu, mouse, iv, total radioactivity; for tissue uptake at 0.5 h / tissue to tissue ratio at 0.5 h: 30 min p.i.
# Procedure: The all animal studies were approved by Research and Ethical Committees of Mazandaran University of Medical Sciences. For xenografting, female C57 nu/nu mice were injected subcutaneously on the right upper back with a suspension of 1 × 10^7 MCF-7 cells and Matrigel® (BD, USA) and the tumors were allowed to grow for about 7–8 weeks. Estradiol valerate was injected subcutaneously into nude mice for 1 week. After tumor size reached in 1 cm^3, this tumor was removed from mouse in aseptic condition and was mechanically squelched with a mortar and with adding complete medium. Squelch of tumor tissue was centrifuged at 1500 rpm for 7 min at 4 °C. The upper medium was removed from tube and then complete medium and estradiol were added to cells pellet. […] Xenografts were allowed to develop during 2 months and the average tumor size was 1.01 ± 0.24 g. The in vivo biodistribution of ^99mTc-HYNIC-(tricine/EDDA)-Lys-FROP was performed on tumor bearing mice at 15 and 30 min post-injection. The mice (four mice in each time group) were injected with 100 μL of HYNIC-(tricine/EDDA)-Lys-FROP (1 μg) via a lateral tail vein. Mice were sacrificed with injection of a lethal dose of ketamine/xylazine after 15 and 30 min. The blood was collected from the heart puncture and the mice were dissected. Major organs (tumor, blood, heart, lung, liver, kidney, spleen, salivary gland, stomach, intestine, muscle and bone) were placed into pre weighed gamma counter tubes and radioactivity in each organ and tissue was measured using a gamma counter and expressed as a percent injected dose (% ID/g).
# To confirm that the radiolabeled peptide was taken up specifically by MCF-7 tumor in vivo, the biodistribution of ^99mTc-HYNIC-FROP was performed with co-injection of a 500-fold (0.5 mg) excess non-radiolabelled FROP-1 and radiolabelled peptide in mice (N = 3 mice in this group). The unlabeled peptide was injected at 30 min before the injection of radiolabeled peptide.
compound,measurement,setting,value
"CSCC[C@H](NC(=O)[C@H](CC(C)C)NC(=O)[C@H](CCC(=O)O)NC(=O)[C@H](Cc1ccc(O)cc1)NC(=O)[C@H](CC(=O)O)NC(=O)[C@@H](N)CCC(=O)O)C(=O)N[C@@H](CC(=O)O)C(=O)N[C@@H](CC(C)C)C(=O)N[C@@H](CC(C)C)C(=O)N[C@@H](C)C(=O)N[C@@H](Cc1ccc(O)cc1)C(=O)N[C@@H](CC(C)C)C(=O)N[C@@H](CCCCNC(=O)c1ccc(NN)nc1)C(=O)O [^99mTc-HYNIC-FROP, metal not drawn] (H-EDYELMDLLAYLK(HYNIC)-OH)",stability in human plasma serum,"[1]; 30 μL in 90 μL fresh human plasma serum, 1 h, RP-HPLC radiodetection",stable; also recorded: the major radioactivity was still associated with ^99mTc-FROP
same,remaining at 1 h,"[1]; abstract statement, human plasma serum, protein precipitation acetonitrile/ethanol 1:1, RP-HPLC",~98%
same,logD,[2],-2.03 ± 0.03
same,"internalized radiolabeled peptide, % of the total radioactivity in the cells",[3]; 1 h at 4 °C then 30 min at 37 °C,10.6 ± 0.8%
same,"internalized radiolabeled peptide, % of the total radioactivity in the cells",[3]; 1 h at 4 °C then 6 h at 37 °C,18.3 ± 2.3%
same,tissue uptake at 0.25 h,"[4]; blood, 1 ug, i.v. tail vein 1 μg, 15 min p.i., n = 4, read-out: Blood uptake",0.48 ± 0.09 %ID/g
same,tissue uptake at 0.5 h,"[4]; blood, 1 ug, i.v. tail vein 1 μg, n = 4, read-out: Blood uptake",0.35 ± 0.1 %ID/g
same,tissue uptake at 0.25 h,"[4]; blood, Block: 500-fold (0.5 mg) excess unlabelled FROP-1, 15 min p.i., n = 3, read-out: Blood uptake",0.69 ± 0.16 %ID/g
same,tissue uptake at 0.25 h,"[4]; bone, 1 ug, i.v. tail vein 1 μg, 15 min p.i., n = 4, read-out: Bone uptake",0.18 ± 0.02 %ID/g
same,tissue uptake at 0.5 h,"[4]; bone, 1 ug, i.v. tail vein 1 μg, n = 4, read-out: Bone uptake",0.24 ± 0.12 %ID/g
same,tissue uptake at 0.25 h,"[4]; heart, 1 ug, i.v. tail vein 1 μg, 15 min p.i., n = 4, read-out: Heart uptake",0.49 ± 0.08 %ID/g
same,tissue uptake at 0.5 h,"[4]; heart, 1 ug, i.v. tail vein 1 μg, n = 4, read-out: Heart uptake",0.26 ± 0.11 %ID/g
same,tissue uptake at 0.25 h,"[4]; heart, Block: 500-fold (0.5 mg) excess unlabelled FROP-1, 15 min p.i., n = 3, read-out: Heart uptake",0.45 ± 0.03 %ID/g
same,tissue uptake at 0.25 h,"[4]; intestine, 1 ug, i.v. tail vein 1 μg, 15 min p.i., n = 4, read-out: Intestine uptake",0.34 ± 0.09 %ID/g
same,tissue uptake at 0.5 h,"[4]; intestine, 1 ug, i.v. tail vein 1 μg, n = 4, read-out: Intestine uptake",0.79 ± 0.25 %ID/g
same,tissue uptake at 0.25 h,"[4]; intestine, Block: 500-fold (0.5 mg) excess unlabelled FROP-1, 15 min p.i., n = 3, read-out: Intestine uptake",0.64 ± 0.09 %ID/g
same,tissue uptake at 0.25 h,"[4]; 1 ug, MCF-7 tumor, i.v. tail vein 1 μg, 15 min p.i., n = 4, read-out: Tumor uptake",0.25 ± 0.02 %ID/g
same,tissue uptake at 0.5 h,"[4]; 1 ug, MCF-7 tumor, i.v. tail vein 1 μg, n = 4, read-out: Tumor uptake",0.38 ± 0.21 %ID/g
same,tissue uptake at 0.25 h,"[4]; MCF-7 tumor, Block: 500-fold (0.5 mg) excess unlabelled FROP-1, 15 min p.i., n = 3, read-out: Tumor uptake",0.09 ± 0.02 %ID/g
same,tissue uptake at 0.25 h,"[4]; kidney, 1 ug, i.v. tail vein 1 μg, 15 min p.i., n = 4, read-out: Kidney uptake",2.22 ± 0.16 %ID/g
same,tissue uptake at 0.5 h,"[4]; kidney, 1 ug, i.v. tail vein 1 μg, n = 4, read-out: Kidney uptake",1.73 ± 0.15 %ID/g
same,tissue uptake at 0.25 h,"[4]; kidney, Block: 500-fold (0.5 mg) excess unlabelled FROP-1, 15 min p.i., n = 3, read-out: Kidney uptake",2.97 ± 0.23 %ID/g
same,tissue uptake at 0.25 h,"[4]; liver, 1 ug, i.v. tail vein 1 μg, 15 min p.i., n = 4, read-out: Liver uptake",0.2 ± 0.02 %ID/g
same,tissue uptake at 0.5 h,"[4]; liver, 1 ug, i.v. tail vein 1 μg, n = 4, read-out: Liver uptake",0.14 %ID/g
same,tissue uptake at 0.25 h,"[4]; liver, Block: 500-fold (0.5 mg) excess unlabelled FROP-1, 15 min p.i., n = 3, read-out: Liver uptake",0.26 ± 0.04 %ID/g
same,tissue uptake at 0.25 h,"[4]; lung, 1 ug, i.v. tail vein 1 μg, 15 min p.i., n = 4, read-out: Lung uptake",0.45 ± 0.08 %ID/g
same,tissue uptake at 0.5 h,"[4]; lung, 1 ug, i.v. tail vein 1 μg, n = 4, read-out: Lung uptake",0.41 ± 0.26 %ID/g
same,tissue uptake at 0.25 h,"[4]; lung, Block: 500-fold (0.5 mg) excess unlabelled FROP-1, 15 min p.i., n = 3, read-out: Lung uptake",0.6 ± 0.04 %ID/g
same,tissue uptake at 0.25 h,"[4]; muscle, 1 ug, i.v. tail vein 1 μg, 15 min p.i., n = 4, read-out: Muscle uptake",0.08 ± 0.01 %ID/g
same,tissue uptake at 0.5 h,"[4]; muscle, 1 ug, i.v. tail vein 1 μg, n = 4, read-out: Muscle uptake",0.21 ± 0.16 %ID/g
same,tissue uptake at 0.25 h,"[4]; muscle, Block: 500-fold (0.5 mg) excess unlabelled FROP-1, 15 min p.i., n = 3, read-out: Muscle uptake",0.15 ± 0.01 %ID/g
same,tissue uptake at 0.25 h,"[4]; salivary gland and thyroid, 1 ug, i.v. tail vein 1 μg, 15 min p.i., n = 4, read-out: S.T (Salivary Gland and Thyroid) uptake",0.25 ± 0.03 %ID/g
same,tissue uptake at 0.5 h,"[4]; salivary gland and thyroid, 1 ug, i.v. tail vein 1 μg, n = 4, read-out: S.T (Salivary Gland and Thyroid) uptake",0.32 ± 0.22 %ID/g
same,tissue uptake at 0.25 h,"[4]; salivary gland and thyroid, Block: 500-fold (0.5 mg) excess unlabelled FROP-1, 15 min p.i., n = 3, read-out: S.T (Salivary Gland and Thyroid) uptake",0.25 ± 0.01 %ID/g
same,tissue uptake at 0.25 h,"[4]; spleen, 1 ug, i.v. tail vein 1 μg, 15 min p.i., n = 4, read-out: Spleen uptake",0.15 ± 0.01 %ID/g
same,tissue uptake at 0.5 h,"[4]; spleen, 1 ug, i.v. tail vein 1 μg, n = 4, read-out: Spleen uptake",0.28 ± 0.11 %ID/g
same,tissue uptake at 0.25 h,"[4]; spleen, Block: 500-fold (0.5 mg) excess unlabelled FROP-1, 15 min p.i., n = 3, read-out: Spleen uptake",0.23 ± 0.07 %ID/g
same,tissue uptake at 0.25 h,"[4]; stomach, 1 ug, i.v. tail vein 1 μg, 15 min p.i., n = 4, read-out: Stomach uptake",0.21 ± 0.01 %ID/g
same,tissue uptake at 0.5 h,"[4]; stomach, 1 ug, i.v. tail vein 1 μg, n = 4, read-out: Stomach uptake",0.33 ± 0.12 %ID/g
same,tissue uptake at 0.25 h,"[4]; stomach, Block: 500-fold (0.5 mg) excess unlabelled FROP-1, 15 min p.i., n = 3, read-out: Stomach uptake",0.26 ± 0.01 %ID/g
same,tissue to tissue ratio at 0.25 h,"[4]; tumor and blood, 1 ug, 15 min p.i., n = 4, read-out: Tumor/Blood ratio",0.53 ± 0.15
same,tissue to tissue ratio at 0.5 h,"[4]; tumor and blood, 1 ug, n = 4, read-out: Tumor/Blood ratio",1.09 ± 0.47
same,tissue to tissue ratio at 0.25 h,"[4]; tumor and blood, Block with excess FROP-1, 15 min p.i., n = 3, read-out: Tumor/Blood ratio",0.14 ± 0.06
same,tissue to tissue ratio at 0.25 h,"[4]; tumor and bone, 1 ug, 15 min p.i., n = 4, read-out: Tumor/Bone ratio",1.36 ± 0.28
same,tissue to tissue ratio at 0.5 h,"[4]; tumor and bone, 1 ug, n = 4, read-out: Tumor/Bone ratio",1.57 ± 0.48
same,tissue to tissue ratio at 0.25 h,"[4]; tumor and bone, Block with excess FROP-1, 15 min p.i., n = 3, read-out: Tumor/Bone ratio",0.4 ± 0.09
same,tissue to tissue ratio at 0.25 h,"[4]; tumor and liver, 1 ug, 15 min p.i., n = 4, read-out: Tumor/Liver ratio",1.24 ± 0.28
same,tissue to tissue ratio at 0.5 h,"[4]; tumor and liver, 1 ug, n = 4, read-out: Tumor/Liver ratio",2.62 ± 1.38
same,tissue to tissue ratio at 0.25 h,"[4]; tumor and liver, Block with excess FROP-1, 15 min p.i., n = 3, read-out: Tumor/Liver ratio",0.36 ± 0.13
same,tissue to tissue ratio at 0.25 h,"[4]; tumor and muscle, 1 ug, 15 min p.i., n = 4, read-out: Tumor/Muscle ratio",3.03 ± 0.12
same,tissue to tissue ratio at 0.5 h,"[4]; tumor and muscle, 1 ug, n = 4, read-out: Tumor/Muscle ratio",1.94 ± 0.46
same,tissue to tissue ratio,"[4]; tumor and muscle, 1 ug, MCF-7 tumor-bearing nude mice, only 15 and 30 min p.i. tested, read-out: time of maximum tumor/muscle ratio",15
same,tissue to tissue ratio at 0.25 h,"[4]; tumor and muscle, Block with excess FROP-1, 15 min p.i., n = 3, read-out: Tumor/Muscle ratio",0.6 ± 0.12
same,tissue to tissue ratio at 0.25 h,"[4]; tumor and spleen, 1 ug, 15 min p.i., n = 4, read-out: Tumor/Spleen ratio",1.61 ± 0.22
same,tissue to tissue ratio at 0.5 h,"[4]; tumor and spleen, 1 ug, n = 4, read-out: Tumor/Spleen ratio",1.56 ± 1.04
same,tissue to tissue ratio at 0.25 h,"[4]; tumor and spleen, Block with excess FROP-1, 15 min p.i., n = 3, read-out: Tumor/Spleen ratio",0.42 ± 0.14
